Here are results for 13 molecules from patent EP4361176A1.

Substitutions are numbered along the chain they refer to.

Sequences and labels used below:
B1: 04H1389-Ks473/04L1615-k0MT//04H1389-Hs482/04L1615-k0MT (antibody)
heavy 1: EVQLVESGGGLVKPGGSLRLSCAASGFTFSSKTMNWVRQAPGKGLEWVSSISTQSHYIYYAESVKGRFTISRDNAKNSLYLQMNSLRAEDTAVYYCARYGKREDMLWVFDYWGQGTLVTVSSASTKGPSVFPLAPSSKSTSGGTAALGCLVKDYFPEPVTVSWNSGALTSGVHTFPAVLQSSGLYSLSSVVTVPSSSLGTQTYICNVNHKPSNTKVDKRVEPKSCDKTHTCPPCPAPEFQWGPMVFLFPPKPKDVLMISRTPEVTCVVVDVSDEEPEVKFNWYVDGVEVHNAKTKPREEQYNATYRVVSVLPVLHQDWLNGKEYKCKVSNDALPAPIEKTISKAKGQPREPQVYTLPPSREEMTKNQVSLWCLVKGFYPSDIAVEWESNGQPENNYKTTPPVLDSDGSFFLYSKLTVDKSRWQQGNVFSCSVMHEALHAHTTRKELSLSP
heavy 2: EVQLVESGGGLVKPGGSLRLSCAASGFTFSSKTMNWVRQAPGKGLEWVSSISTQSHYIYYAESVKGRFTISRDNAKNSLYLQMNSLRAEDTAVYYCARYGKREDMLWVFDYWGQGTLVTVSSASTKGPSVFPLAPSSKSTSGGTAALGCLVKDYFPEPVTVSWNSGALTSGVHTFPAVLQSSGLYSLSSVVTVPSSSLGTQTYICNVNHKPSNTKVDKRVEPKSCDKTHTCPPCPAPELLAGPSVFLFPPKPKDVLMISRTPEVTCVVVDVSHEEPEVKFNWYVDGVEVHNAKTKPREEQYNATYRVVSVLPVLHQDWLNGKEYKCKVSNDALPKPDEETISKAKGQPREPQVYTLPPSREEMTKNQVSLSCAVKGFYPSDIAVEWESNGQPENNYKTTPPVLDSDGSFFLVSKLTVDKSRWQQGNVFSCSVMHEALHAHTTRKELSLSP
light: DIVMTQSPLSLPVTPGEPASISCQGPSTGVGDYNYVHWYQQKPGQAPRLLIYFTSKKPSGVPDRFSGSGSGTDFTLKISRVEAEDVGVYYCQTYAAPLGPMFGQGTKLEIKRTVAAPSVFIFPPSDEQLKSGTASVVCLLNNFYPREAKVQWKVDNALQSGNSQESVTEQDSKDSTYSLSSTLTLSKADYEKHKVYACEVTHQGLSSPVTKSFNRGEC
B2: 04H1389-Km462/04L1615-k0MT//04H1389-Hm445/04L1615-k0MT (antibody, human IgG1, kappa)
heavy 1: B1 heavy 1 with Y354C, A439N, T441Y, R443Q, E445S
heavy 2: B1 heavy 2 with E361C, A439N, T441Y, R443Q, E445S
light: B1 light
B3: 04H1389-Ks462/04L1615-k0MT//04H1389-Hs445/04L1615-k0MT (antibody, human IgG1, kappa)
heavy 1: B1 heavy 1 with A439N, T441Y, R443Q, E445S
heavy 2: B1 heavy 2 with A439N, T441Y, R443Q, E445S
light: B1 light
B4: 04H1389-Ks461/04L1615-k0MT//04H1389-Hs443/04L1615-k0MT (antibody, human IgG1, kappa)
heavy 1: B1 heavy 1 with I337E, A439N, T441Y, R443Q, E445S
heavy 2: B1 heavy 2 with K335A, D337E, A439N, T441Y, R443Q, E445S
light: B1 light
B5: 04H1389-Km461/04L1615-k0MT//04H1389-Hm443/04L1615-k0MT (antibody, human IgG1, kappa)
heavy 1: B1 heavy 1 with I337E, Y354C, A439N, T441Y, R443Q, E445S
heavy 2: B1 heavy 2 with K335A, D337E, E361C, A439N, T441Y, R443Q, E445S
light: B1 light
B6: 04H1654-KT462/04L1610-lam1//04H1656-HT445/04L1610-lam1 (antibody, human IgG1, lambda)
heavy 1: QVQLVESGGGVVQPGGSLRLSCAASGFTFSSKTMNWVRQAPGKGLEWVSSISTQSHYIYYARSVRGRFTISRDNAKNSLYLQMNSLRAEDTAVYYCARYGKREDMLWVFDYWGQGTLVTVSSASTKGPSVFPLAPSSKSTSGGTAALGCLVKDYFPEPVTVSWNSGALTSGVHTFPAVLQSSGLYSLSSVVTVPSSSLGTQTYICNVNHKPSNTKVDKRVEPKSCDKTHTCPPCPAPEFQWGPMVFLFPPKPKDVLMISRTPEVTCVVVDVSDEEPEVKFNWYVDGVEVHNAKTKPREEQYNATYRVVSVLPVLHQDWLNGKEYKCKVSNDALPAPIEKTISKAKGQPREPQVYTLPPSRKEMTKNQVSLTCLVKGFYPSDIAVEWESNGQPENNYKTTPPVLDSDGSFFLYSKLTVDKSRWQQGNVFSCSVMHEALHNHYTQKSLSLSP
heavy 2: QVQLVESGGGVVQPGGSLRLSCAASGFTFSSKTMNWVRQAPGKGLEWVSSISTQSHYIYYAESVRGRFTISRDNAKNSLYLQMNSLRAEDTAVYYCARYGAREDMLWVFDYWGQGTLVTVSSASTKGPSVFPLAPSSKSTSGGTAALGCLVKDYFPEPVTVSWNSGALTSGVHTFPAVLQSSGLYSLSSVVTVPSSSLGTQTYICNVNHKPSNTKVDKRVEPKSCDKTHTCPPCPAPELLAGPSVFLFPPKPKDVLMISRTPEVTCVVVDVSHEEPEVKFNWYVDGVEVHNAKTKPREEQYNATYRVVSVLPVLHQDWLNGKEYKCKVSNDALPKPDEETISKAKGQPREPQVYTLPPSREEMTKNQVSLTCLVKGFYPSDIAVEWESNGQPENNYKTTPPVLDSDGSFFLYSKLTVDKSRWQQGNVFSCSVMHEALHNHYTQESLSLSP
light: QSALTQPPSASGSPGQSVTISCEGPSTGVGDYNWVHWYQQHPGKAPKLMIYFTSKKPSGVPDRFSGSKSGNTASLTVSGLQAEDEADYYCQTYAAPLGPMFGGGTKLTVLGQPKAAPSVTLFPPSSEELQANKATLVCLISDFYPGAVTVAWKADSSPVKAGVETTTPSKQSNNKYAASSYLSLTPEQWKSHRSYSCQVTHEGSTVEKTVAPTECS
B7: 04H1654-KT481/04L1610-lam1//04H1656-HT498/04L1610-lam1 (antibody)
heavy 1: B6 heavy 1 with I337E, N439A, Y441T, Q443R, S445E
heavy 2: B6 heavy 2 with K335A, D337E, N439A, Y441T, Q443R, S445E
light: B6 light
B8: 04H1654-KT481/04L1612-lam1//04H1656-HT498/04L1612-lam1 (antibody)
heavy 1: B6 heavy 1 with I337E, N439A, Y441T, Q443R, S445E
heavy 2: B6 heavy 2 with K335A, D337E, N439A, Y441T, Q443R, S445E
light: B6 light with N33T, W34Y
B9: 04H1654-KT473/04L1612-lam1//04H1656-HT482/04L1612-lam1 (antibody)
heavy 1: B6 heavy 1 with N439A, Y441T, Q443R, S445E
heavy 2: B6 heavy 2 with N439A, Y441T, Q443R, S445E
light: B6 light with N33T, W34Y
B10: 04H1654-KT462/04L1612-lam1//04H1656-HT445/04L1612-lam1 (antibody, human IgG1, lambda)
heavy 1: B6 heavy 1
heavy 2: B6 heavy 2
light: B6 light with N33T, W34Y
B11: 04H1654-KT461/04L1612-lam1//04H1656-HT443/04L1612-lam1 (antibody, human IgG1, lambda)
heavy 1: B6 heavy 1 with I337E
heavy 2: B6 heavy 2 with K335A, D337E
light: B6 light with N33T, W34Y
B12: 04H1654-KT461/04L1610-lam1//04H1656-HT443/04L1610-lam1 (antibody, human IgG1, lambda)
heavy 1: B6 heavy 1 with I337E
heavy 2: B6 heavy 2 with K335A, D337E
light: B6 light
B13: 04H1654-KT473/04L1610-lam1//04H1656-HT482/04L1610-lam1 (antibody)
heavy 1: B6 heavy 1 with N439A, Y441T, Q443R, S445E
heavy 2: B6 heavy 2 with N439A, Y441T, Q443R, S445E
light: B6 light

In one assay the target is human FcγRIIb extracellular domain with C-terminal His-tag (human) (UniProt P31994). Put plainly: SPR (Biacore T200), FcγRIIb, amount bound per unit captured antibody. On the technique in general: SPR reads the build-up and loss of mass on a sensor chip optically.
Sequence of human FcγRIIb extracellular domain with C-terminal His-tag (human) (P31994 43-217): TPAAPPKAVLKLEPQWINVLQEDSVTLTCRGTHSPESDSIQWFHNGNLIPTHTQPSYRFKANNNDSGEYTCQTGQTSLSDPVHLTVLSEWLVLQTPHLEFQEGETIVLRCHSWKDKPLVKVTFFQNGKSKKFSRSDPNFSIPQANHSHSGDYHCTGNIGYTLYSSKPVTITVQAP
Molecule B1 yielded a Binding amount of 0.026.

B2 yielded a Binding amount of 0.029.

Take B3: the Binding amount was determined as 0.03.

As for B4, the Binding amount came to 0.024.

B5 registered a Binding amount of 0.024.

The next assay shares this target. Put plainly: SPR (Biacore T200), FcγRIIb 1000 nM, amount bound per unit captured antibody.
The molecule B6 came in with a Binding amount of 0.025.

Consider B7, for which the Binding amount was determined as 0.022.

Take B8: the Binding amount turned out to be 0.022.

B9 displayed a Binding amount of 0.026.

On to B10, for which the Binding amount was 0.028.

As for B11, the Binding amount was 0.025.

B12 showed a Binding amount of 0.025.

For the molecule B13, the Binding amount is 0.026.

For the next assay the target is unchanged. Put plainly: SPR; binding amount / that of 04H1637-G1m/04L1610-lam1.
In the case of B6, the Relative binding amount was 3.1.

On to B7, for which the Relative binding amount is 2.7.

In the case of B8, the Relative binding amount came to 2.8.

On to B9, for which the Relative binding amount was 3.2.

Regarding B10, the Relative binding amount came out at 3.4.

Molecule B11 came in with a Relative binding amount of 3.1.

Turning to B12, the Relative binding amount is 3.1.

Molecule B13 yielded a Relative binding amount of 3.2.

A further assay shares this target. In words: SPR; binding amount / that of 04H1389-G1m/04L1615-k0MT.
Regarding B1, the Relative binding amount was 2.3.

In turn, B2 had a Relative binding amount of 2.6.

B3: the Relative binding amount came to 2.6.

In turn, B4 returned a Relative binding amount of 2.1.

As for B5, the Relative binding amount amounted to 2.1.
